According to US20220226495A1:
Where two headings read alike, the source gives them in different places.

B1: Binding Protein 2 (protein)
heavy 1: RAHLVQSGTAMKKPGASVRVSCQTSGYTFTAHILFWFRQAPGRGLEWVGWIKPQYGAVNFGGGFRDRVTLTRDVYREIAYMDIRGLKPDDTAVYYCARDRSYGDSSWALDAWGQGTTVVVSAASTKGPSVFPLAPSSKSTSGGTAALGCLVKDYFPEPVTVSWNSGALTSGVHTFPAVLQSSGLYSLSSVVTVPSSSLGTQTYICNVNHKPSNTKVDKKVEPKSCDKTHTCPPCPAPELLGGPSVFLFPPKPKDTLMISRTPEVTCVVVDVSHEDPEVKFNWYVDGVEVHNAKTKPREEQYNSTYRVVSVLTVLHQDWLNGKEYKCKVSNKALPAPIEKTISKAKGQPREPQVCTLPPSRDELTKNQVSLSCAVKGFYPSDIAVEWESNGQPENNYKTTPPVLDSDGSFFLVSKLTVDKSRWQQGNVFSCSVLHEALHSHYTQKSLSLSPG
light 1: YIHVTQSPSSLSVSIGDRVTINCQTSQGVGSDLHWYQHKPGRAPKLLIHHTSSVEDGVPSRFSGSGFHTSFNLTISDLQADDIATYYCQVLQFFGRGSRLHIKRTVAAPSVFIFPPSDEQLKSGTASVVCLLNNFYPREAKVQWKVDNALQSGNSQESVTEQDSKDSTYSLSSTLTLSKADYEKHKVYACEVTHQGLSSPVTKSFNRGEC
heavy 2: EVRLVESGGGLVKPGGSLRLSCSASGFDFDNAWMTWVRQPPGKGLEWVGRITGPGEGWSVDYAESVKGRFTISRDNTKNTLYLEMNNVRTEDTGYYFCARTGKYYDFWSGYPPGEEYFQDWGQGTLVIVSSDKTHTQVHLTQSGPEVRKPGTSVKVSCKAPGNTLKTYDLHWVRSVPGQGLQWMGWISHEGDKKVIVERFKAKVTIDWDRSTNTAYLQLSGLTSGDTAVYYCAKGSKHRLRDYALYDDDGALNWAVDVDYLSNLEFWGQGTAVTVSSDKTHTASTKGPSVFPLAPSSKSTSGGTAALGCLVKDYFPEPVTVSWNSGALTSGVHTFPAVLQSSGLYSLSSVVTVPSSSLGTQTYICNVNHKPSNTKVDKKVEPKSCDKTHTCPPCPAPELLGGPSVFLFPPKPKDTLMISRTPEVTCVVVDVSHEDPEVKFNWYVDGVEVHNAKTKPREEQYNSTYRVVSVLTVLHQDWLNGKEYKCKVSNKALPAPIEKTISKAKGQPREPQVYTLPPCRDELTKNQVSLWCLVKGFYPSDIAVEWESNGQPENNYKTTPPVLDSDGSFFLYSKLTVDKSRWQQGNVFSCSVLHEALHSHYTQKSLSLSPG
light 2: DFVLTQSPHSLSVTPGESASISCKSSHSLIHGDRNNYLAWYVQKPGRSPQLLIYLASSRASGVPDRFSGSGSDKDFTLKISRVETEDVGTYYCMQGRESPWTFGQGTKVDIKDKTHTASELTQDPAVSVALKQTVTITCRGDSLRSHYASWYQKKPGQAPVLLFYGKNNRPSGIPDRFSGSASGNRASLTITGAQAEDEADYYCSSRDKSGSRLSVFGGGTKLTVLDKTHTRTVAAPSVFIFPPSDEQLKSGTASVVCLLNNFYPREAKVQWKVDNALQSGNSQESVTEQDSKDSTYSLSSTLTLSKADYEKHKVYACEVTHQGLSSPVTKSFNRGEC
B2: Binding Protein 3 (protein)
heavy 1: RAHLVQSGTAMKKPGASVRVSCQTSGYTFTAHILFWFRQAPGRGLEWVGWIKPQYGAVNFGGGFRDRVTLTRDVYREIAYMDIRGLKPDDTAVYYCARDRSYGDSSWALDAWGQGTTVVVSAASTKGPSVFPLAPSSKSTSGGTAALGCLVKDYFPEPVTVSWNSGALTSGVHTFPAVLQSSGLYSLSSVVTVPSSSLGTQTYICNVNHKPSNTKVDKKVEPKSCDKTHTCPPCPAPELLGGPSVFLFPPKPKDTLMISRTPEVTCVVVDVSHEDPEVKFNWYVDGVEVHNAKTKPREEQYNSTYRVVSVLTVLHQDWLNGKEYKCKVSNKALPAPIEKTISKAKGQPREPQVCTLPPSRDELTKNQVSLSCAVKGFYPSDIAVEWESNGQPENNYKTTPPVLDSDGSFFLVSKLTVDKSRWQQGNVFSCSVLHEALHSHYTQKSLSLSPG
light 1: YIHVTQSPSSLSVSIGDRVTINCQTSQGVGSDLHWYQHKPGRAPKLLIHHTSSVEDGVPSRFSGSGFHTSFNLTISDLQADDIATYYCQVLQFFGRGSRLHIKRTVAAPSVFIFPPSDEQLKSGTASVVCLLNNFYPREAKVQWKVDNALQSGNSQESVTEQDSKDSTYSLSSTLTLSKADYEKHKVYACEVTHQGLSSPVTKSFNRGEC
heavy 2: QVHLTQSGPEVRKPGTSVKVSCKAPGNTLKTYDLHWVRSVPGQGLQWMGWISHEGDKKVIVERFKAKVTIDWDRSTNTAYLQLSGLTSGDTAVYYCAKGSKHRLRDYALYDDDGALNWAVDVDYLSNLEFWGQGTAVTVSSDKTHTEVRLVESGGGLVKPGGSLRLSCSASGFDFDNAWMTWVRQPPGKGLEWVGRITGPGEGWSVDYAESVKGRFTISRDNTKNTLYLEMNNVRTEDTGYYFCARTGKYYDFWSGYPPGEEYFQDWGQGTLVIVSSDKTHTASTKGPSVFPLAPSSKSTSGGTAALGCLVKDYFPEPVTVSWNSGALTSGVHTFPAVLQSSGLYSLSSVVTVPSSSLGTQTYICNVNHKPSNTKVDKKVEPKSCDKTHTCPPCPAPELLGGPSVFLFPPKPKDTLMISRTPEVTCVVVDVSHEDPEVKFNWYVDGVEVHNAKTKPREEQYNSTYRVVSVLTVLHQDWLNGKEYKCKVSNKALPAPIEKTISKAKGQPREPQVYTLPPCRDELTKNQVSLWCLVKGFYPSDIAVEWESNGQPENNYKTTPPVLDSDGSFFLYSKLTVDKSRWQQGNVFSCSVLHEALHSHYTQKSLSLSPG
light 2: ASELTQDPAVSVALKQTVTITCRGDSLRSHYASWYQKKPGQAPVLLFYGKNNRPSGIPDRFSGSASGNRASLTITGAQAEDEADYYCSSRDKSGSRLSVFGGGTKLTVLDKTHTDFVLTQSPHSLSVTPGESASISCKSSHSLIHGDRNNYLAWYVQKPGRSPQLLIYLASSRASGVPDRFSGSGSDKDFTLKISRVETEDVGTYYCMQGRESPWTFGQGTKVDIKDKTHTRTVAAPSVFIFPPSDEQLKSGTASVVCLLNNFYPREAKVQWKVDNALQSGNSQESVTEQDSKDSTYSLSSTLTLSKADYEKHKVYACEVTHQGLSSPVTKSFNRGEC
B3: V1/V2 directed Ab “a” (antibody, V domains shown)
VH: QVHLTQSGPEVRKPGTSVKVSCKAPGNTLKTYDLHWVRSVPGQGLQWMGWISHEGDKKVIVERFKAKVTIDWDRSTNTAYLQLSGLTSGDTAVYYCAKGSKHRLRDYALYDDDGALNWAVDVDYLSNLEFWGQGTAVTVSS
VL: DFVLTQSPHSLSVTPGESASISCKSSHSLIHGDRNNYLAWYVQKPGRSPQLLIYLASSRASGVPDRFSGSGSDKDFTLKISRVETEDVGTYYCMQGRESPWTFGQGTKVDIK
B4: V1/V2 directed Ab “b” (antibody, V domains shown)
VH: QVQLVESGGGVVQPGTSLRLSCAASQFRFDGYGMHWVRQAPGKGLEWVASISHDGIKKYHAEKVWGRFTISRDNSKNTLYLQMNSLRPEDTALYYCAKDLREDECEEWWSDYYDFGKQLPCAKSRGGLVGIADNWGQGTMVTVSS
VL: QSVLTQPPSVSAAPGQKVTISCSGNTSNIGNNFVSWYQQRPGRAPQLLIYETDKRPSGIPDRFSASKSGTSGTLAITGLQTGDEADYYCATWAASLSSARVFGTGTKVIVL

Key:
[1] = biological target: HIV-1 Env of 20 pseudotyped viruses representing 10 different HIV-1 clades; assay: cell-based or functional assay
[2] = biological target: T1, MPER binding peptide (Acetyl-[…]-Ttds-Lys-(Biotin)-NH2) (HIV-1)
[3] = biological target: T1, MPER binding peptide …; remark: listed apart in the source
[4] = biological target: HIV-1 Env of 20 pseudotyped viruses representing 10 different HIV-1 clades; assay: cell-based or functional assay; remark: listed apart in the source

Binder | % VS Neutralized IC80 <1 µg/mL [1] | % VS Neutralized IC80 <50 µg/mL [1] | Geometric Mean [1] | Median IC80 [1] | Total VS Neutralized IC80 <1 µg/mL (viruses of 20) [1] | Total VS Neutralized IC80 <50 µg/mL (viruses of 20) [1] | Ka [2] | Kd [2] | koff [2] | kon [2] | fold higher affinity than the MPER antibody [3] | % VS Neutralized IC80 <1 µg/mL [4] | % VS Neutralized IC80 <50 µg/mL [4] | Geometric Mean [4] | Median IC80 [4] | Total VS Neutralized IC80 <1 µg/mL (viruses of 20) [4] | Total VS Neutralized IC80 <50 µg/mL (viruses of 20) [4]
B1 | 65% | 90% | 0.222 µg/mL | 0.375 µg/mL | 13 | 18 | 1.65e+08 M⁻¹ | 6.05 nM | 0.000697 s⁻¹ | 115000 M⁻¹ s⁻¹ | 3.1 fold | – | – | – | – | – | –
B2 | 60% | 90% | 0.287 µg/mL | 0.469 µg/mL | 12 | 18 | 6e+07 M⁻¹ | 16.7 nM | 0.000779 s⁻¹ | 46700 M⁻¹ s⁻¹ | – | – | – | – | – | – | –
B3 | 45% | 55% | 0.094 µg/mL | 0.06 µg/mL | 9 | 11 | – | – | – | – | – | – | – | – | – | – | –
B4 | – | – | – | – | – | – | – | – | – | – | – | 45% | 45% | 0.039 µg/mL | 0.051 µg/mL | 9 | 9
